According to patent US20050282743A1, “Molecular interactions in cells” (Arbor Vita Corporation, priority 2001, published 2005):
Ends that are not written are not given here. * marks the point of attachment. Biotin = O=C1N[C@H]2[C@H](CS[C@H]2CCCCC(=O)*)N1

Tests used:
Assay in all cases: G' assay (10 uM PL peptide), results of TABLE 7 and TABLE 12
Format in all cases: binding
[1] = target: T1, PDZ protein (GST-PDZ fusion) (Homo sapiens, UniProt Q13796); settings: PDZ hAPXL, PDZ Domain 1
T1 construct: made in house; host or cells: E. coli (DH5alpha, BL21 or JM109)
T1 sequence (Q13796 whole entry, the tested form may be a part): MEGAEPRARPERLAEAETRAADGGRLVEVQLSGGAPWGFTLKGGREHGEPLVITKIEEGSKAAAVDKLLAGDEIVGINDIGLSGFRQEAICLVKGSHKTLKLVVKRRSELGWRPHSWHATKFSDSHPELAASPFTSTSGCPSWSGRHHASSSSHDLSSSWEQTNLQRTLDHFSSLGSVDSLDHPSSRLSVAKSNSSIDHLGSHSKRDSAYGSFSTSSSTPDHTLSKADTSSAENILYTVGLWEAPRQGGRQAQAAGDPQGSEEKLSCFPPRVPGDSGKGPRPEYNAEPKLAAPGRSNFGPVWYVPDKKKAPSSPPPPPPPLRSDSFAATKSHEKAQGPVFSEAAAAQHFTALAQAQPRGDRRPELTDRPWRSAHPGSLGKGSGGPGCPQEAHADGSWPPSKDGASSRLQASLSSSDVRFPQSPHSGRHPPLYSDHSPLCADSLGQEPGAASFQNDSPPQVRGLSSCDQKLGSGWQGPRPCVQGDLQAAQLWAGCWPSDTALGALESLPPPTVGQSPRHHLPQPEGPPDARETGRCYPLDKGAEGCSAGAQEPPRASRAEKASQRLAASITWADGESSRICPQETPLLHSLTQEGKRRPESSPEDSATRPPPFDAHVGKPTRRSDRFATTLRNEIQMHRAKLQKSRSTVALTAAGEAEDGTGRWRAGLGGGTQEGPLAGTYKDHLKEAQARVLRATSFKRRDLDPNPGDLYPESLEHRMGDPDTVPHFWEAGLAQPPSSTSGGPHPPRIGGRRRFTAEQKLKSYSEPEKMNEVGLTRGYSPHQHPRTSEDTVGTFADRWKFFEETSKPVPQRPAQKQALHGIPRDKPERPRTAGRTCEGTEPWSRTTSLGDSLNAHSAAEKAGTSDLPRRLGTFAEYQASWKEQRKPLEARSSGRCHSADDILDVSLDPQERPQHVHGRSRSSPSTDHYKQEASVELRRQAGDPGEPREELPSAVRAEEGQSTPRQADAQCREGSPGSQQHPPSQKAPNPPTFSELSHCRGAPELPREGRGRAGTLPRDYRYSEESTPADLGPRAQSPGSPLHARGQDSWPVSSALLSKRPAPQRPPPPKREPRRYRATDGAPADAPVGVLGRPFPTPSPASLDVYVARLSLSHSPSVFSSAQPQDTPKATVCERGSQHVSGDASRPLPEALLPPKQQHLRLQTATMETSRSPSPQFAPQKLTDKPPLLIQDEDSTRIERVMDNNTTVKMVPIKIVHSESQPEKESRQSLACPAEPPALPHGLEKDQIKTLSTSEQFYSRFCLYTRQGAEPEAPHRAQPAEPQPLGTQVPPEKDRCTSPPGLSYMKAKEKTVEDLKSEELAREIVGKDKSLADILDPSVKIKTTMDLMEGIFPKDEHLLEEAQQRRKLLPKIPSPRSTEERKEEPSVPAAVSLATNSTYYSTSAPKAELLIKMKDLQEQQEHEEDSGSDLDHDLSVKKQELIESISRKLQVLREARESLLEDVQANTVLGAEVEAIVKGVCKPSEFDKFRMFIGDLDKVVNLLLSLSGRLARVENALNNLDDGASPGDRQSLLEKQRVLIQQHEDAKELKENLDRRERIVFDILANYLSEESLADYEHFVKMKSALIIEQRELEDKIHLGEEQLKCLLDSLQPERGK
Text: (§1) Each page of TABLE 7 and 12 includes seven columns. The columns in each table are numbered from left to right such that the left-most column in each table is column 1 and the right-most column in each table is column 7. Thus, the first column in each table is labeled “AVC ID”; this column simply lists an internal reference number used to refer to the carboxyl-terminal amino acids of the PL proteins listed in the second column. […] All PL peptides were biotinylated at the amino-terminus and the sequences of these PL peptides are presented in TABLE 8 (see end of specification).
(§2) This column provides the gene name for the PDZ portion of the GST-PDZ fusion that interacts with the PDZ-ligand to the left. For PDZ domain-containing proteins with multiple domains, the domain number is listed to the right of the PDZ (i.e., in column 5 labeled “PDZ Domain”), and indicates the PDZ domain number when numbered from the amino-terminus to the carboxy-terminus.
(§3) The third column labeled “Peptide Optimal Concentration” in the tables is a number reflective of the binding interaction between the PL protein and PDZ protein. […] The column labeled “Protein Optimal Concentration” refers to the protein concentration used to assay PL interaction (in ug/ml); a ‘0’ is indicative of 5 ug/ml protein concentration; any other value represents the concentration (in ug/ml) used to determine the dissociation constant for a given interaction.
(§4) Finally, the seventh column labeled “Classification” is another measure of the level of binding. In particular, it provides an absorbance value at 450 nm which indicates the amount of PL peptide bound to the PDZ protein. The following numerical values have the following meanings: ‘1’—A450 nm 0-1; ‘2’—A450 nm 1-2; ‘3’—A450 nm 2-3; ‘4’—A450 nm 3-4; ‘5’—A450 nm of 4 more than 2× repeated; ‘0’—A450 nm 0, i.e., not found to interact. Thus, higher numbers indicate stronger interactions.
(§5) For convenience, the assay conditions described in this section are referred to as the “G′ assay” and the “G″ assay,” with the specific conditions described in the preceding section on G assays being referred to as the “G^0 assay.” The “G′ assay” is identical to the “G^0 assay” except at step (2) the peptide concentration is 10 uM instead of 20 uM.

[2] = target: T2, PDZ protein (GST-PDZ fusion) (Homo sapiens, UniProt Q8TEW0); settings: PDZ PAR3, PDZ Domain 3
T2 construct: made in house; host or cells: E. coli (DH5alpha, BL21 or JM109)
T2 sequence (Q8TEW0 whole entry, the tested form may be a part): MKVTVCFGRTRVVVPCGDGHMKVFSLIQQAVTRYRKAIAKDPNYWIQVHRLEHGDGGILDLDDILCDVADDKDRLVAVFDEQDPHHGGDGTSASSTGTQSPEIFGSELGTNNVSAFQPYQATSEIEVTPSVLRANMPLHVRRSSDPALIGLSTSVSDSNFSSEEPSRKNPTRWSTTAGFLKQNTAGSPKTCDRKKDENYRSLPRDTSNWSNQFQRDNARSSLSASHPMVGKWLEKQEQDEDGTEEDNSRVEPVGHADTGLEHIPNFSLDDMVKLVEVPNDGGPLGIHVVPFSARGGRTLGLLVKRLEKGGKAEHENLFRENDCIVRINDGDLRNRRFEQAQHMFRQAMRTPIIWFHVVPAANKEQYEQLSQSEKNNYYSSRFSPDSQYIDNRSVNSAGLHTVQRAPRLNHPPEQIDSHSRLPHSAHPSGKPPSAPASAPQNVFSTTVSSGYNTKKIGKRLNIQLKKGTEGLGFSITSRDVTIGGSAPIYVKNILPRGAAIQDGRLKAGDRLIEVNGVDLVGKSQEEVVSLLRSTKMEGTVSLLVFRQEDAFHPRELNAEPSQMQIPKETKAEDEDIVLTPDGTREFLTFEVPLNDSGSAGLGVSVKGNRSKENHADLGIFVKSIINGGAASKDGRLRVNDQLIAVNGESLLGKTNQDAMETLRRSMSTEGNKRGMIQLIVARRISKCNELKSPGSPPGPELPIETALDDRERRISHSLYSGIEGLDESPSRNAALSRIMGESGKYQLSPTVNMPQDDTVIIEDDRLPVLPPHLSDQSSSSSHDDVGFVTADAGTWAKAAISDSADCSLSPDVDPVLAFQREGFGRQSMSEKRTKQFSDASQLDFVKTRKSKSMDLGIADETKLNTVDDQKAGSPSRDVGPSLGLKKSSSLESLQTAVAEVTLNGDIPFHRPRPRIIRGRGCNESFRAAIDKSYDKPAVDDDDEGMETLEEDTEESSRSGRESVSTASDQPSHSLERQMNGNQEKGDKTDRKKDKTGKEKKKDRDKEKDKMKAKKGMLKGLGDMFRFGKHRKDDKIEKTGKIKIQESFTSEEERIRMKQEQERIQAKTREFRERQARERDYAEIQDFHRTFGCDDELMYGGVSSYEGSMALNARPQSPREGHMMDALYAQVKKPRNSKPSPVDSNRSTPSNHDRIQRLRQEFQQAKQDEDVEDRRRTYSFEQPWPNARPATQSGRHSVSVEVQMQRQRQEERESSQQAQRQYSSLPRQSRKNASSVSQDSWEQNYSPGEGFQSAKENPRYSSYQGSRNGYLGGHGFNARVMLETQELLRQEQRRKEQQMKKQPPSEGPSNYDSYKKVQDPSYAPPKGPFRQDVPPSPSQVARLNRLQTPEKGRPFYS
Text: as §1, §2, §3, §4, §5

[3] = target: T3, PDZ protein (GST-PDZ fusion) (Homo sapiens, UniProt Q9C0E4); settings: PDZ KIAA1719, PDZ Domain 6
T3 construct: made in house; host or cells: E. coli (DH5alpha, BL21 or JM109)
Text: as §1, §2, §3, §4, §5

[4] = target: T4, PDZ protein (GST-PDZ fusion) (Homo sapiens, UniProt Q12959); settings: PDZ DLG1, PDZ Domain 2
T4 construct: made in house; host or cells: E. coli (DH5alpha, BL21 or JM109)
Text: as §1, §2, §3, §4, §5

[5] = target: T5, PDZ protein (GST-PDZ fusion) (Homo sapiens, UniProt Q5TCQ9); settings: PDZ KIAA1634, PDZ Domain 1
T5 construct: made in house; host or cells: E. coli (DH5alpha, BL21 or JM109)
T5 sequence (Q5TCQ9 1-1481): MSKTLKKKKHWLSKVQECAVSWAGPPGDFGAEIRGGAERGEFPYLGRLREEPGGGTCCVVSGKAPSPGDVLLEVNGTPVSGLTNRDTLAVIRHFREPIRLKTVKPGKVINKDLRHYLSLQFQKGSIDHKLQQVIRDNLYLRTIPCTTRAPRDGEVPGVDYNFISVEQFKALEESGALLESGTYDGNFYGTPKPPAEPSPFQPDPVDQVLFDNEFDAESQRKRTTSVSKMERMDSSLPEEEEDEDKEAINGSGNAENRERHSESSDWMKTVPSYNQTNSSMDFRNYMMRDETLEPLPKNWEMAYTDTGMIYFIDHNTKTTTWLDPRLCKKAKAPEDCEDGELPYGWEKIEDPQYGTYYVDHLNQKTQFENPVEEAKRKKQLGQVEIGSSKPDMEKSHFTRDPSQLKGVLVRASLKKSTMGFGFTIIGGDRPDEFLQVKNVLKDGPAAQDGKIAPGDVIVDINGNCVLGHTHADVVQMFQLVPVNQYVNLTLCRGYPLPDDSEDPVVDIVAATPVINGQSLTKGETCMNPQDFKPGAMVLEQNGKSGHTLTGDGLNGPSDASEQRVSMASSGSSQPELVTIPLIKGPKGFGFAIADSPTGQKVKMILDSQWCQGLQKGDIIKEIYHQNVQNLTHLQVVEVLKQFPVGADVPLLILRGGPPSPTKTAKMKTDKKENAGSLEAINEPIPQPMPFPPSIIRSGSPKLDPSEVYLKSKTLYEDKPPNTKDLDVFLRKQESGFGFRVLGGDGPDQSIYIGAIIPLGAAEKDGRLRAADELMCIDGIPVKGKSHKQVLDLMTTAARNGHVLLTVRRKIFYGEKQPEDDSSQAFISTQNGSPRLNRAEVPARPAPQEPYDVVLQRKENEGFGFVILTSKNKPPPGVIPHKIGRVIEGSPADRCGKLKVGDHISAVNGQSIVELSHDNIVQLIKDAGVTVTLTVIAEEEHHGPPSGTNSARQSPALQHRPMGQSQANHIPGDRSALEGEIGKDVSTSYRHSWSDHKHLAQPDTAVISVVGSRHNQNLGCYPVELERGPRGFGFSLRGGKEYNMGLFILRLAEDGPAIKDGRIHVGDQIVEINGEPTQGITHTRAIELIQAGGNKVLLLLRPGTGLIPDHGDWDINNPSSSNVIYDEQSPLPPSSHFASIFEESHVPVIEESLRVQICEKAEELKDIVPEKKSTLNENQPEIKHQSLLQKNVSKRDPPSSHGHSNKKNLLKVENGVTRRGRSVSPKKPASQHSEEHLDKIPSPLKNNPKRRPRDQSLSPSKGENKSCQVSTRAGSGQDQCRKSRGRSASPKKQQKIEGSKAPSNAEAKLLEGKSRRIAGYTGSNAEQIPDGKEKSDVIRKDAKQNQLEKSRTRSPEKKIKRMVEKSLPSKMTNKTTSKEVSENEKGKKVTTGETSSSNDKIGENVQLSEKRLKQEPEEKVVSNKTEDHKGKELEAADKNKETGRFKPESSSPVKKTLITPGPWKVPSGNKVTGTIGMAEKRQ
Text: as §1, §2, §3, §4, §5

[6] = target: T6, PDZ protein (GST-PDZ fusion) (Homo sapiens, UniProt O75970); settings: PDZ MUPP-1, PDZ Domain 11
T6 construct: made in house; host or cells: E. coli (DH5alpha, BL21 or JM109)
Text: as §1, §2, §3, §4, §5

[7] = target: T7, PDZ protein (GST-PDZ fusion) (Homo sapiens, UniProt Q02410); settings: PDZ Mint 1, PDZ Domain 2
T7 construct: made in house; host or cells: E. coli (DH5alpha, BL21 or JM109)
T7 sequence (Q02410 1-837): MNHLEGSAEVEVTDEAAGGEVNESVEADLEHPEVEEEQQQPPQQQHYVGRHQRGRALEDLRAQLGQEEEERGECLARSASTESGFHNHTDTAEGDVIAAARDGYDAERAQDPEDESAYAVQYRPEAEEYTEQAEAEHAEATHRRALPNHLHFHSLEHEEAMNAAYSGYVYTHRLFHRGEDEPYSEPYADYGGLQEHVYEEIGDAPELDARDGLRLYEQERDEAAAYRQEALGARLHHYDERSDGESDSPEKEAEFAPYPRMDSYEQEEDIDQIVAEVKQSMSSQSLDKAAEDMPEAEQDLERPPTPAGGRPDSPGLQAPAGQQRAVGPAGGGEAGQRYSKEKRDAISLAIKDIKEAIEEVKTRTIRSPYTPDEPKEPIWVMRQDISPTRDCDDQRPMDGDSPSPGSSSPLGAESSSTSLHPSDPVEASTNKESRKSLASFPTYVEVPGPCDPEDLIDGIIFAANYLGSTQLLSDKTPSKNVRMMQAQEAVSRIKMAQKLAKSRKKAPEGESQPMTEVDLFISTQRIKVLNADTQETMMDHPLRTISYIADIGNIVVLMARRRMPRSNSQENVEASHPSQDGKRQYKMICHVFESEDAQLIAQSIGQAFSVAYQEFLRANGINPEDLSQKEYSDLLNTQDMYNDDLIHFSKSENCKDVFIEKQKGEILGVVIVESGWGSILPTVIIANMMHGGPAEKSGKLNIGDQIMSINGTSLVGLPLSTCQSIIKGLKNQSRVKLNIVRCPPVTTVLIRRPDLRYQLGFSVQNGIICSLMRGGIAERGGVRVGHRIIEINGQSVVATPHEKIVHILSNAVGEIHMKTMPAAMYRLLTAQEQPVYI
Text: as §1, §2, §3, §4, §5

[8] = target: T8, PDZ protein (GST-PDZ fusion) (Homo sapiens, UniProt Q9NZN5); settings: PDZ KIAA0382, PDZ Domain 1
T8 construct: made in house; host or cells: E. coli (DH5alpha, BL21 or JM109)
Text: as §1, §2, §3, §4, §5

[9] = target: T9, PDZ protein (GST-PDZ fusion) (Homo sapiens, UniProt O15018); settings: PDZ AIPC, PDZ Domain 1
T9 construct: made in house; host or cells: E. coli (DH5alpha, BL21 or JM109)
Text: as §1, §2, §3, §4, §5

[10] = target: T10, PDZ protein (GST-PDZ fusion) (Homo sapiens, UniProt Q12923); settings: PDZ PTPL-1, PDZ Domain 4
T10 construct: made in house; host or cells: E. coli (DH5alpha, BL21 or JM109)
Text: as §1, §2, §3, §4, §5

[11] = target: T11, PDZ protein (GST-PDZ fusion) (Homo sapiens, UniProt Q6P0Q8)
T11 construct: made in house; host or cells: E. coli (DH5alpha, BL21 or JM109)
T11 sequence (Q6P0Q8 whole entry, the tested form may be a part): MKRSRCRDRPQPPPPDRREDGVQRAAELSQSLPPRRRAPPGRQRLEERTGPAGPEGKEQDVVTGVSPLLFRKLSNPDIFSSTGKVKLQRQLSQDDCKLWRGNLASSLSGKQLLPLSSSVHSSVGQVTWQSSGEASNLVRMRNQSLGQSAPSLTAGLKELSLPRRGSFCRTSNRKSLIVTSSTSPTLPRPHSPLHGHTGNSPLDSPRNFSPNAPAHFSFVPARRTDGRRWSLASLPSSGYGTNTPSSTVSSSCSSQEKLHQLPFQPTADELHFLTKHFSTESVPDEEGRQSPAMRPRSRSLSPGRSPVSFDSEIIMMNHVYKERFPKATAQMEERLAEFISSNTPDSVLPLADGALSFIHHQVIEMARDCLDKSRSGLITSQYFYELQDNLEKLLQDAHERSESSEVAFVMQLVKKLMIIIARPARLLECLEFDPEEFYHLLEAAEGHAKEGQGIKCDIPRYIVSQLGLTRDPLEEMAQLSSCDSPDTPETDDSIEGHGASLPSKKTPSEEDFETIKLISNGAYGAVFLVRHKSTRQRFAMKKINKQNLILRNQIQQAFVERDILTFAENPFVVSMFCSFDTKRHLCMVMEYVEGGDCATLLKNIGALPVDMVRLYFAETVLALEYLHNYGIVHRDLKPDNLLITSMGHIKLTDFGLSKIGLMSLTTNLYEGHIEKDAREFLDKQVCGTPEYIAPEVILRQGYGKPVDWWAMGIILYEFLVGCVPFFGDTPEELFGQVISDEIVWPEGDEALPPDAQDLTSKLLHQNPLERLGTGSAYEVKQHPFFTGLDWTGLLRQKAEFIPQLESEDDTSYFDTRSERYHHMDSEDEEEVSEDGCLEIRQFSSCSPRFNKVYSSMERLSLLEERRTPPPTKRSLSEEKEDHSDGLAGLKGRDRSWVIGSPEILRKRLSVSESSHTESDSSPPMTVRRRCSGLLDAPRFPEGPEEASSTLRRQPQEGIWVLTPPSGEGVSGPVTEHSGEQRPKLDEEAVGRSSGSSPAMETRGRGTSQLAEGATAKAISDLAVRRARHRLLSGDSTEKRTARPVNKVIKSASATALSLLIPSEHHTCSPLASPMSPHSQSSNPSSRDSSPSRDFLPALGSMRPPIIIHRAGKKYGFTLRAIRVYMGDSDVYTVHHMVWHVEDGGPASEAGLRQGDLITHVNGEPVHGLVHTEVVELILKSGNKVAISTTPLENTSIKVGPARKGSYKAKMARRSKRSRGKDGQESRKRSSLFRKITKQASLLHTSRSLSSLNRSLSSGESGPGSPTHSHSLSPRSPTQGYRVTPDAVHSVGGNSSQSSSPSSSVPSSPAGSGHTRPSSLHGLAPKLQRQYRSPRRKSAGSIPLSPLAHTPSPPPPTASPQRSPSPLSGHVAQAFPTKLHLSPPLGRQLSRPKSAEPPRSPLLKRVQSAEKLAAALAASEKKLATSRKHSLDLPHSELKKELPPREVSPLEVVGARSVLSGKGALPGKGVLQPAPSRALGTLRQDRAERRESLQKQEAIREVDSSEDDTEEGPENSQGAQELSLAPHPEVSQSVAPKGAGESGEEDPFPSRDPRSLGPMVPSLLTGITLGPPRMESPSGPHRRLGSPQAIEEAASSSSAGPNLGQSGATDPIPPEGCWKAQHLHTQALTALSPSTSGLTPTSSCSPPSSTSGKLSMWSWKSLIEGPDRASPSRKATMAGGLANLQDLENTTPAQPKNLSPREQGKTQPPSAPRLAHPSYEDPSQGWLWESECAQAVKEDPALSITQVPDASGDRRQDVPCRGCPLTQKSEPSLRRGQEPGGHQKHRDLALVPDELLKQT
Text: as §1, §2, §3, §4, §5

[12] = target: T12, PDZ protein (GST-PDZ fusion) (Homo sapiens, UniProt Q9Y2H9); settings: PDZ KIAA0973, PDZ Domain 1
T12 construct: made in house; host or cells: E. coli (DH5alpha, BL21 or JM109)
Text: as §1, §2, §3, §4, §5

Row | Classification [2] | Classification [3] | Substance | Classification [1] | Classification ([11]; PDZ KIAA0807(S), PDZ Domain 1) | also measured
1 | 1 (A450 nm 0-1) | – | PTR2_HUMAN (Biotin-RPMESNPDTEGAQGETEDVL) | 1 (A450 nm 0-1) | – | –
2 | 2 (A450 nm 1-2) | 1 (A450 nm 0-1) | QGDPALQDAGDSSRKEYFI (Biotin-QGDPALQDAGDSSRKEYFI) [Glycophorin C] | – | – | –
3 | 2 (A450 nm 1-2) | – | VDPNSPAAKKKYVSYNNLVI [GLUR7 (metabotropic glutamate receptor)] | – | – | Classification [4]: 1 (A450 nm 0-1); Classification [5]: 1 (A450 nm 0-1)
4 | – | 1 (A450 nm 0-1) | RIAYSLLGLKDQVNTVGIPI (Biotin-RIAYSLLGLKDQVNTVGIPI) [ephrin A2] | – | – | Classification [6]: 1 (A450 nm 0-1); Classification [7]: 1 (A450 nm 0-1); Classification [8]: 1 (A450 nm 0-1)
5 | – | – | NSYVRDDAIFIKAIVDLTGL (Biotin-NSYVRDDAIFIKAIVDLTGL) [TRAF2] | – | 4 (A450 nm 3-4) | Classification ([11]; PDZ KIAA807): 2 (A450 nm 1-2); Classification [12]: 1 (A450 nm 0-1)

Row | Substance | Classification [2] | Classification [3] | Classification [1] | Classification ([11]; PDZ KIAA0807(S), PDZ Domain 1) | also measured
6 | LLNVLQRQELGDGLDDEIAV (Biotin-LLNVLQRQELGDGLDDEIAV) | 1 (A450 nm 0-1) | – | 1 (A450 nm 0-1) | 1 (A450 nm 0-1) | Classification [9]: 1 (A450 nm 0-1); Classification [10]: 1 (A450 nm 0-1); Classification ([11]; PDZ KIAA807, PDZ Domain not given): 1 (A450 nm 0-1)
